Test results taken from patent US20250163116A1, “NEW METHOD TO TREAT INFECTIOUS DISEASES” (INSERM (INSTITUT NATIONAL DE LA SANTÉ ET DE LA RECHERCHE …, priority 2022, published 2025).

B1: nANGPTL4: N-terminal fragment of ANGPTL4, aa 26-164, SEQ ID NO: 24, purchased from R&D Systems (protein)
chain: GPVQSKSPRFASWDEMNVLAHGLLQLGQGLREHAERTRSQLSALERRLSACGSACQGTEGSTDLPLAPESRVDPEVLHSLQTQLKAQNSRIQQLFHKVAQQQRHLEKQHLRIQHLQSQFGLLDHKHLDHEVAKPARRK
modifications: nANGPTL4
B2: ANGPTL4: Recombinant human ANGPTL4 (Angiopoietin-like 4), full length, SEQ ID NO: 1, purchased from R&D Systems (protein, listed as Homo sapiens)
chain: MSGAPTAGAALMLCAATAVLLSAQGGPVQSKSPRFASWDEMNVLAHGLLQLGQGLREHAERTRSQLSALERRLSACGSACQGTEGSTDLPLAPESRVDPEVLHSLQTQLKAQNSRIQQLFHKVAQQQRHLEKQHLRIQHLQSQFGLLDHKHLDHEVAKPARRKRLPEMAQPVDPAHNVSRLHRLPRDCQELFQVGERQSGLFEIQPQGSPPFLVNCKMTSDGGWTVIQRRHDGSVDFNRPWEAYKAGFGDPHGEFWLGLEKVHSITGDRNSRLAVQLRDWDGNAELLQFSVHLGGEDTAYSLQLTAPVAGQLGATTVPPSGLSVPFSTWDQDHDLRRDKNCAKSLSGGWWFGTCSHSNLNGQYFRSIPQQRQKLKKGIFWKTWRGRYYPLQATTMLIQPMAAEAAS
B3: cANGPTL4: C-terminal fragment of ANGPTL4, aa 164-406, fibrinogen-like domain, purchased from R&D Systems (protein, listed as Homo sapiens)
chain: RLPEMAQPVDPAHNVSRLHRLPRDCQELFQVGERQSGLFEIQPQGSPPFLVNCKMTSDGGWTVIQRRHDGSVDFNRPWEAYKAGFGDPHGEFWLGLEKVHSITGDRNSRLAVQLRDWDGNAELLQFSVHLGGEDTAYSLQLTAPVAGQLGATTVPPSGLSVPFSTWDQDHDLRRDKNCAKSLSGGWWFGTCSHSNLNGQYFRSIPQQRQKLKKGIFWKTWRGRYYPLQATTMLIQPMAAEAAS

Columns and labels:
Type in all cases: cell-based, human
[1] = tested on: HDMECs infected with Nm 2C4.3; experiment: Integrity of HDMEC monolayers infected with N. meningitidis (VE-cadherin at intercellular junctions, immunofluorescence); settings: 1 μg/mL added 30 min after initiation of Nm infection, 2 h 30
Description: FIG. 1. Exogenous ANGPTL4 exerts protective effects on dermal microvascular endothelial cells infected by N. meningitidis. A. HDMECs were infected with Nm 2C4.3 for 30 min and treated with 1 μg/mL of recombinant human ANGPTL4 for 2 h 30. Cells were fixed and stained for cellular actin, VE-cadherin and DAPI and analyzed by fluorescent microscopy. Quantifications of VE-cadherin enrichment at intercellular junctions and of intercellular spaces area were performed on 30 fields with Image J software. Kruskal-Wallis test ** P<0.001; P<0.0001. B. HDMEC were either uninfected or infected with N. meningitidis 2C4.3 for 30 min and treated with 1 μg mL−1 of recombinant human ANGPTL4, its N-terminal portion (nANGPTL4) or its C-terminal portion (cANGPTL4) for 2 h 30. Caspase-3/7 reagent was added to detect apoptosis in real time over 9 h using the IncuCyte® Live-Cell Analysis System
FIG. 2: Vascular protection is conferred by the N-terminal part of ANGPTL4. A, Schematic representation of ANGPTL4 structure. ANGPTL4 contains a N-terminal portion (nANGPTL4, aa 26-164) linked to a C-terminal portion (cANGPTL4, aa 164-406) by a cleavable linker. nANGPTL4 contains a highly conserved lipoprotein lipase (LPL) binding domain (aa 44-55), two cysteines on position 76 and 80 involved in protein oligomerization and a coiled-coil domain (aa 100-143). The C-terminal portion encodes a fibrinogen-like domain. B, HDMECs were infected with Nm 2C4.3 for 30 min and treated with 1 μg/mL of recombinant human ANGPTL4, nANGPTL4 or cANGPTL4 for 2 h 30. Cells were fixed and stained for cellular actin, VE-cadherin and DAPI and analyzed by fluorescent microscopy. B. Quantifications of VE-cadherin enrichment at intercellular junctions and of intercellular spaces area were performed on 30 fields with Image J software. Kruskal-Wallis test ** P<0.001, *** P<0.0001 of four independent experiments performed in triplicate.
FIG. 3: Vascular protection is conferred by a novel binding motif (aa 66-80) present in the N-terminal part of ANGPTL4. A, the indicated peptides were derived from nANGPTL4. B, HDMECs were infected with Nm 2C4.3 for 30 min and treated with 1 μg/mL of each peptides. Quantifications of VE-cadherin enrichment at intercellular junctions was performed on 30 fields with Image J software.
FIG. 4: Vascular protection is conferred by interaction of nANGPTL4 with Syndecan-4. A, HDMECs were infected with Nm 2C4.3 for 30 min and treated with 1 μg/mL of recombinant human ANGPTL4, nANGPTL4 or cANGPTL4 in the absence or in the presence of anti-SDC4 antibody for 2 h 30. Cells were fixed and stained for cellular actin, VE-cadherin and DAPI and analysed by fluorescent microscopy. Quantifications of VE-cadherin enrichment at intercellular junctions and of intercellular spaces area were performed on 30 fields with Image J software. Kruskal-Wallis test ** P<0.001, **** P<0.00001, ns1 P=0.2172; ns2 P>0.999 of four independent experiments performed in triplicate. B, HDMECs were transfected with small interfering RNA (siRNA) against SDC4 or non-targeting siRNA controls for 48 h, infected with Nm 2C4.3 for 30 min and treated with 1 μg/mL of recombinant human ANGPTL4, for 2 h 30. Quantifications of VE-cadherin enrichment at intercellular junctions and of intercellular spaces area were performed on 30 fields with Image J software. Kruskal-Wallis test ** P<0.001, *** P<0.0001, of two independent experiments performed in triplicate.
The day of infection, a suspension of the bacteria from an overnight culture on GCB agar plate was adjusted to OD600=0.05 and incubated for 2 h at 37° C. in a pre-warmed cell culture medium. Cells were infected with bacteria at a multiplicity of infection (MOI) of 100 bacteria per cell (OD=0.1) for 30 minutes, washed twice to remove non-adherent bacteria and infection was allowed to proceed for various periods of time. Cells were then washed and fixed in 4% paraformaldehyde for immunofluorescence analysis. […]

[2] = tested on: HDMECs infected with N. meningitidis; experiment: Release of inflammatory cytokines and markers of vascular inflammation and endothelial alteration by infected HDMECs; settings: data not shown
Text: In contrast to brain microvascular endothelial cells that resist to meningococcal infection, the integrity of dermal microvascular endothelial cell (HDMECs) monolayer was massively impaired upon infection, as observed with the loss of adherens junctions and cell detachment (data not shown). Since HDMEC poorly produces ANGPTL4 as compared to HBMEC (data not shown), we analysed whether the addition of recombinant human ANGPTL4 might exert a protective effect on these cells. […] Additionally, while infection was accompanied by the massive release of inflammatory cytokines (TNF-α, IL-6, IL-8), markers of vascular inflammation (E-selectin, ICAM-1, VCAM-1), and markers of endothelial cell alteration (Endoglin, Thrombomodulin), all these markers were reduced by 35 to 80% upon treatment with ANGPTL4 (data not shown).

[3] = tested on: HDMECs infected with S. pneumoniae TIGR4; experiment: Integrity of HDMECs infected with S. pneumoniae; settings: 1 μg/mL for 2 h after 30 min infection
Description: FIG. 6: ANGPTL4 protects dermal microvascular endothelial cells from infection by S. pneumoniae. HDMECs were infected with S. pneumoniae TIGR4 for 30 min and treated with 1 μg/mL of recombinant human ANGPTL4 for 2 h. Cells were fixed and stained for cellular actin, VE-cadherin and DAPI and analyzed by fluorescent microscopy. Quantifications of VE-cadherin enrichment at intercellular junctions was performed on 30 fields with Image J software. Kruskal-Wallis test *** P<0.0001.
To address whether ANGPTL-4 could also provide vascular protection from Gram-positive bacteria, we investigated the effect of ANGPTL-4 on HDMECs exposed to infection by the Gram-positive bacterium Streptococcus pneumoniae, one of the major causative agents of pneumonia, sepsis, meningitis and other morbidities.

Row | Molecule | protective effect on monolayer integrity (adherens junctions, cell detachment) of infected HDMECs [1] | reduction of TNF-α, IL-6, IL-8, E-selectin, ICAM-1, VCAM-1, Endoglin, Thrombomodulin release [2] [%] | endothelial integrity (cell junction organization) upon S. pneumoniae infection [3]
1 | B1 | sufficient to maintain cell monolayer integrity upon infection | – | –
2 | B2 | entirely preserved the integrity of this monolayer | 35 to 80 | preserved endothelial integrity
3 | B3 | no significant protective effect | – | –
